Results: patent publication US20240109974A1 (SHANDONG SIMCERE BIOPHARMACEUTICAL, published 2024)
Numbering of substitutions follows the chain as printed.

T1: human TNFR2 on the surface of CHO-TNFR2 cells (human, UniProt P20333 23-461)
T1 construct: whole, on cells
T1 sequence (looked up): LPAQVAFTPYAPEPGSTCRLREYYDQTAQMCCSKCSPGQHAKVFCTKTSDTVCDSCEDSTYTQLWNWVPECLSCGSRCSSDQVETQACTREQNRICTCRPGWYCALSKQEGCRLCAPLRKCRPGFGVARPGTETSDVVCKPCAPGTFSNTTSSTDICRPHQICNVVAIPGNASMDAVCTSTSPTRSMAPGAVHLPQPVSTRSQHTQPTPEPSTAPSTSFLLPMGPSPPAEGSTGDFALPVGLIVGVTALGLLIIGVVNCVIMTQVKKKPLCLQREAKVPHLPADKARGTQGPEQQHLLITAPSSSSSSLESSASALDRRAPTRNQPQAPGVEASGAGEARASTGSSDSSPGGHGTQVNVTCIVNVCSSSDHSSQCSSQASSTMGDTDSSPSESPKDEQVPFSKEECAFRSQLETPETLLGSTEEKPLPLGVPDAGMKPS

B1: 001-Hu5 (antibody, V domains shown)
VH: EVQLVESGGGLVQPGGSLRLSCAASGFAFSTYDLSWVRQAPGKGLEWVAYINNGGISTYYSDTVKGRFTISRDNAKNTLYLQMNSLRAEDTAVYYCVRGPFYGSANYFDYWGQGTLVTVSS
VL: DIQMTQSPSSLSASVGDRVTITCRTSESIYSNLPWYQQKPGKSPKLLVYDATKLAEGVPSRFSGSGSGTDYTLTISSLQPEDFATYYCQHFWVTPWTFGQGTKVEIK
notes: Humanized form of #001; also called VH1 + VL4
B2: 001-Hu1 (antibody, V domains shown)
VH: B1 VH
VL: B1 VL with S43A, V48L
notes: Humanized form of #001; also called VH1 + VL1
B3: 001-Hu2 (antibody, V domains shown)
VH: B1 VH with T78S
VL: B1 VL with V48I, Y71F
notes: Humanized form of #001; also called VH2 + VL2
B4: 001-Hu3 (antibody, V domains shown)
VH: B1 VH
VL: B1 VL with S43A, V48I
notes: Humanized form of #001; also called VH1 + VL3
B5: 001-Hu4 (antibody, V domains shown)
VH: B1 VH with T78S
VL: B1 VL
notes: Humanized form of #001; also called VH2 + VL4
B6: 001-WT (antibody, V domains shown)
VH: B1 VH with V5Q, R19N, A40T, G42E, G44R, N84S, R87K, A88S, V93M, L116T
VL: EIVMTQSPASLSLSVGETVTITCRTSESIYSNLPWYQQKQGKSPQLLVYDATKLAEGVPSRFSGSESGTQYSLKINSLQSEDFGTYYCQHFWVTPWTFGGGTKLEIK
notes: Human-murine chimeric wild-type molecule; also called human-murine chimeric antibody WT of #001
B7: 219-WT (antibody, V domains shown)
VH: EVQLQESGAELVRPGASVKLSCKASGYSFTNYWMNWVKQRPGQGLEWIGMIHPSDTETRLNQNFKDKATLTVDKSSSTSYMQLSSPTSEDSAVYYCARGEGLGAARSVSMDYWGQGTTVTVSS
VL: DILMTQSPSSLSASLGDRVTISCRASQDISNYLNWYQQKPDGTVKVLIYYTAILHSGVPSRFSGSGSGTDYSLTISNLEQEDIATYFCQQGNTLPWTFGGGTKLEIK
notes: Human-murine chimeric wild-type molecule
B8: 224-WT (antibody, V domains shown)
VH: EVQLQESGPEIVKPGASVKLSCTASGFNNKDIYMHWVKQRPEQGLEWIGRIDPATGNTKHDPKFQDKATLSSDTSSNTAYLQFSSLTSEDTAVYYCAHSPYGDFGAMDYWGQGTTVTVSS
VL: DIQMTQSPAIMSASLGERVTMTCTASSSVSSNYLHWYQQKPGSSPKLWIYSTSNLPSGVPARFSGSGSGTSYSLTISSMEAEDAATYYCHQYHRSPWTFGGGTKLEIK
notes: Human-murine chimeric wild-type molecule; also called human-murine chimeric antibody WT of #224

What follows are binders tested against T1, human TNFR2 on the surface of CHO-TNFR2 … (assay: competition flow cytometry on CHO-TNFR2 cells, competitor TNFα-biotin; IC50 against 001-WT).
Method: CHO stable cells highly expressing human TNFR2 were used for the experiment (the same as CHO-TNFR2 in Example 4). The CHO-TNFR2 cells were digested, washed twice with DPBS, then stained with Live/Dead (L/D) (20 minutes at room temperature), and plated at a density of 1×10⁵ cells/50 μl/well. A test anti-TNFR2 antibody was diluted to 6 μg/ml with a staining buffer as the starting concentration: the antibody was subjected to 3.33-fold gradient dilution, with a total of 7 concentration points. The diluted antibody was added to the plated cells at 50 μl/well, and the mixture was mixed well by gentle pipetting, and incubated at 4° C. for 30 minutes. Then the diluted 100 ng/ml of human TNFα-biotin was added at 100 μl/well, and the mixture was mixed well by gentle pipetting, and then incubated at 4° C. for 30 minutes. The mixture was washed twice with a staining buffer, and then 0.12 μg/ml PE-streptavidin (BioLegend, Cat #405204) was added at 100 μl/well; the resulting mixture was incubated at 4° C. for 30 minutes. The mixture was washed twice with a staining buffer, and then 150 μl of staining buffer was added to resuspend the cells; signals were detected by a flow cytometer (Thermo Attune NxT). The inhibitory curve of an antibody was drawn with antibody concentration as the abscissa and corresponding MFI value as the ordinate, and fitted with four parameters (GraphPad Prism9) to calculate the IC50 value. The smaller the IC50 value, the stronger the ability of an antibody to inhibit the binding of human TNFα to human TNFR2. The blocking effect of a humanized antibody was normalized to its corresponding human-murine chimeric WT antibody. The higher the percentage value, the better the inhibitory effect of the humanized antibody.

% Relative activity (WT antibody/test antibody) [%] | Binder
86.2 | B1
98.3 | B2
84.3 | B3
100 | B4
92.3 | B5

The binders below were run against T1, human TNFR2 on the surface of CHO-TNFR2 … (assay: flow cytometry on CHO-TNFR2 cells; EC50, reference itself).
Method: The transfected full-length plasmid of human TNFR2 was purchased from Sino Biological (Cat #HG10417-UT, NCBI Ref Seq: NM_001066.2). The experiment was conducted at a cell density within 80%. The cell medium was discarded; the cells were rinsed with PBS, and digested with 1 ml trypsin for 2 minutes; the digestion was stopped with a Ham's F12 complete medium containing 10% FBS, and then a cell suspension was made. The cell suspension was counted, and then an appropriate amount of cell suspension was centrifuged at 350×g; the supernatant was discarded; a corresponding volume of blocking solution (10% FBS+PBS) at a density of 1×10⁷ cells/ml was added to resuspend the cells, and the mixture was incubated at 4° C. for 30 minutes. After the incubation, the mixture was centrifuged at 350×g to remove the supernatant, and the cells were resuspended in a staining buffer (2% FBS+PBS) to a density of 2×10⁶ cells/ml, and spread onto a 96-well plate, with 50 μl of cell suspension added to each well for later use. The antibody was diluted with PBS for 10-fold gradient dilution from the highest concentration of 20 μg/m (twice the concentration); the diluted antibody was added to the well containing 50 μl of cell suspension, and placed on a microplate shaker for shaking at 500 rpm for 1 minute, so that the antibody was fully mixed with the cells; the mixture was incubated at 4° C. for 1 h. After the incubation, the cells were washed twice with the staining buffer, with 100 μl per well, and centrifuged at 350-g for 5 minutes, and the supernatant was discarded. […] After the staining, similarly, the cells were washed twice with the staining buffer; finally, the cells were resuspended in 200 μl of staining buffer; signals were detected by a flow cytometer (Thermo Attune NxT). […] The binding curve of an antibody was drawn with antibody concentration as the abscissa and corresponding mean fluorescence intensity (MFI) fold as the ordinate, and fitted with four parameters (GraphPad Prism9) to calculate the EC50 value.

% Relative activity (WT antibody/test antibody) [%] | Binder
100 | B6
100 | B7
100 | B8
